In US20240254227A1 (Alector, published 2024):

T1: human CD300LB-Fc (human)
T1 construct: hIgG1-Fc fusion; the entry is the whole fusion chain
T1 chain: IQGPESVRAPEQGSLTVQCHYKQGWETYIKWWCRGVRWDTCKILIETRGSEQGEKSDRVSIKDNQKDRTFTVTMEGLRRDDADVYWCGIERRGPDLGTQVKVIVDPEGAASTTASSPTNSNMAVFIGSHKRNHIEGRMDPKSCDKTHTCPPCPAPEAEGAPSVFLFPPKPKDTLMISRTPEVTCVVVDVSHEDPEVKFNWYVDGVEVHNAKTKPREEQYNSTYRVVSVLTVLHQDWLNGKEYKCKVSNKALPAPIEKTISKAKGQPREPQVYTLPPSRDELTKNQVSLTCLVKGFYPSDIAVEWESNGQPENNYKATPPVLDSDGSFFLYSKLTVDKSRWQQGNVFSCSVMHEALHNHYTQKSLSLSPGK

T2: human CD300A-Fc (human)
T2 construct: hIgG1-Fc fusion; the entry is the whole fusion chain
T2 chain: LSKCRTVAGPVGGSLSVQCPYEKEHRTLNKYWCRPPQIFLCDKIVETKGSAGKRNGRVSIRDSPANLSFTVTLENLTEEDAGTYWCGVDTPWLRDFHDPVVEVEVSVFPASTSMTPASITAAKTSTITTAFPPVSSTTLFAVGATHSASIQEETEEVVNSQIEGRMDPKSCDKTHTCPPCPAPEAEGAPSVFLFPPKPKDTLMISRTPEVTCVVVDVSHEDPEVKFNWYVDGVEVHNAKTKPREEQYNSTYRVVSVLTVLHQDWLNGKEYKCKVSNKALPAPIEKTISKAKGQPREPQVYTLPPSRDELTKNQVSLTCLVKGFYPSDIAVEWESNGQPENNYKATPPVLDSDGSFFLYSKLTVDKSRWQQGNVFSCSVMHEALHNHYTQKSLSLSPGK

T3: human CD300C-Fc (human)
T3 construct: hIgG1-Fc fusion; the entry is the whole fusion chain
T3 chain: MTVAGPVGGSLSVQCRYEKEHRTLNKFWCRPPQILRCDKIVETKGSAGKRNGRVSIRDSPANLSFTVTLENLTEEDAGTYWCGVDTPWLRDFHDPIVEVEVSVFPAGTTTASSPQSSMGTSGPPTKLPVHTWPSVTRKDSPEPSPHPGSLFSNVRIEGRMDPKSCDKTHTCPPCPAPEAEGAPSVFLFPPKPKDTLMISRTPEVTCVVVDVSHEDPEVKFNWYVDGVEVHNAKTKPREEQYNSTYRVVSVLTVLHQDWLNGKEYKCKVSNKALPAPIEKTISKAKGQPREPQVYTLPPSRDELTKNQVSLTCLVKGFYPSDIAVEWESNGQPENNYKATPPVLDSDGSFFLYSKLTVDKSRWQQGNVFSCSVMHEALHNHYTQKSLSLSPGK

T4: human CD300D-Fc (human)
T4 construct: hIgG1-Fc fusion; the entry is the whole fusion chain
T4 chain: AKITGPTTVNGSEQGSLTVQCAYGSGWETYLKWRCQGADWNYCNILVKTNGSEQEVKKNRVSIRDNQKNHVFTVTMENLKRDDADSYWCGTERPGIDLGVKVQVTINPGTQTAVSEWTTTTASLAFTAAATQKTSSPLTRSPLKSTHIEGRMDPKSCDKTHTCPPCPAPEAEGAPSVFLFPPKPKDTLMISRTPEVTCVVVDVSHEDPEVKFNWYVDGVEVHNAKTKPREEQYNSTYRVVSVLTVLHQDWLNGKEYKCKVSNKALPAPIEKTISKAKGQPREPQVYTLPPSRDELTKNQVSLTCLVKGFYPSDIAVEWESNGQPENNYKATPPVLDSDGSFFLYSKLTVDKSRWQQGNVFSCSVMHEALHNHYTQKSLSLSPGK

T5: human CD300F-Fc (human)
T5 construct: hIgG1-Fc fusion; the entry is the whole fusion chain
T5 chain: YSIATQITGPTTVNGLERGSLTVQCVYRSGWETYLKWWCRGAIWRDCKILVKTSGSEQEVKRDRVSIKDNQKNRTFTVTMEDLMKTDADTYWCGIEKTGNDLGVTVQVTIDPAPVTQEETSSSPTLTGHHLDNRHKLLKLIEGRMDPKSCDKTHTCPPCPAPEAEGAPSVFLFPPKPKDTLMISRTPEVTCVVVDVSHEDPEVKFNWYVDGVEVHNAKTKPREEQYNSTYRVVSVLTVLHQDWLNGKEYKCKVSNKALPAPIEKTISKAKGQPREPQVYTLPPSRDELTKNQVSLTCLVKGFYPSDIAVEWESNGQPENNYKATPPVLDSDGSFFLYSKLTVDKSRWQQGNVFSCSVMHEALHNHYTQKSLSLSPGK


Legend:
Experiment in all cases: SPR (Carterra LSA), antibody immobilised, Fc fusion at 300 or 600 nM
human CD300LB-Fc = molecular target: T1, human CD300LB-Fc
Method: (§1) Binding of mouse anti-CD300LB IgG1 antibodies of the present disclosure to human and murine CD300 orthologs were evaluated by surface plasmon resonance (SPR) using a Carterra LSA instrument (Carterra, Salt Lake City, UT). […] A HC200M sensor chip (Carterra) was activated using the single channel flow cell with a 7-minute injection of a 1:1:1 mixture of 100 mM MES pH 5.5, 100 mM sulfo-NHS, 400 mM EDC (all reconstituted in MES pH 5.5; 100 μL of each mixed in vial immediately before running assay). After switching to the multi-channel array flow cell, the antibodies were injected over the activated chip in a 96-spot array for 10 minutes. The remaining unconjugated active groups on the chip were then blocked by injecting 1M Ethanolamine pH 8.5 (Carterra) for 7 minutes using the single channel flow cell. After priming with running buffer (HBS-TE, Carterra) with 0.5 mg/ml BSA (Sigma), the immobilized anti-CD300LB antibodies were tested for their ability to bind human and mouse recombinant CD300LB extracellular domains. Human CD300 family members and mouse CD300A were hIgG1-Fc fusions, while mouse CD300LB, mouse CD300C, mouse CD300D, and mouse CD300E were mouse IgG2a-Fc fusions (R&D Systems). Binding was assessed by injecting each analyte over the entire antibody array using the single channel flow cell. CD300 analytes were diluted to 300 nM or 600 nM in running buffer and injected in series without regeneration. Two or three buffer blanks were run between each mouse or human ortholog, respectively. Data were processed and analyzed using NextGenKIT high-throughput kinetics analysis software (Carterra).
(§2) Results of anti-CD300LB antibody binding to human CD300 family members is provided below in Table 7.

human CD300A-Fc = molecular target: T2, human CD300A-Fc
Method: as §1, §2

human CD300C-Fc = molecular target: T3, human CD300C-Fc
Method: as §1, §2

human CD300D-Fc = molecular target: T4, human CD300D-Fc
Method: as §1, §2

human CD300F-Fc = molecular target: T5, human CD300F-Fc
Method: as §1, §2

Row | Binder | SPR binding (control subtracted) (human CD300LB-Fc) | SPR binding (control subtracted) (human CD300A-Fc) | SPR binding (control subtracted) (human CD300C-Fc) | SPR binding (control subtracted) (human CD300D-Fc) | SPR binding (control subtracted) (human CD300F-Fc)
1 | anti-CD300LB antibody CD-01 (antibody, V domains shown) VH: RVQLQQSGAELVRPGASVTLSCKASGFTFTDFEMHWVKKTPVHGLEWIGAIDPESGNTAYNQKFRGKATLTADKSSSTAYMELRYLTSEDSAVYYCTPLISGADYWGQGTTLTVSS VL: DVVMTQSPLSLPVSLGDQASISCRSSQSLVHSDGNTYLYWYLQKPGQSPKLLIYKVSNRFSGVPDRFSGSGSGTDFTFKISRVGAEDLGVYFCSQSTHVPWTFGGGTKLEII | 3.71 | 0.175 | 0.805 | 0.575 | 0.075
2 | anti-CD300LB antibody CD-02 (antibody, V domains shown) VH: QVQLQQPGAELVRPGSSVKLSCQASGYTFTNYWMHWVRQRPIQGLEWIGNIDPSDSETHYNQKFKDRATLTVDKSSSTAYMQLSSLTSEDSAVYYCARSGVYDDEGGDYWGQGTTLTVSS VL: ENVLTQSPAIMSASPGEKVTMTCSASSSVSYIHWYQQKSSTSPKLWIYDTSKLASGVPGRFSGSGSGNSYSLTISSMETEDVATYYCFQGSGYPLTFGAGTKLELK | 21 | 0.735 | 0.425 | 0.76 | 0.87

Results, then the binder that gave them:

Row | SPR binding (control subtracted) (human CD300LB-Fc) | SPR binding (control subtracted) (human CD300A-Fc) | SPR binding (control subtracted) (human CD300C-Fc) | SPR binding (control subtracted) (human CD300D-Fc) | SPR binding (control subtracted) (human CD300F-Fc) | Binder
3 | 43 | 0.095 | 0.165 | 0.4 | 0.42 | anti-CD300LB antibody CD-03 (antibody, V domains shown) VH: EVQLQQSGPELVKPGASVKISCKASGYTFTDYYINWVRQSHGKSLECIGDINPNNGGTNYNQKFKGKATLTVDRSSNTAYMEFRSLTFDDSALYYCAAEGAYWGQGTLVTVSA VL: not shown
4 | 51 | 0.24 | 0.06 | 0.115 | 0.045 | anti-CD300LB antibody CD-05 (antibody, V domains shown) VH: QVQLVQSGAEVKKPGASVKVSCKASGYTFSRYYINWVRQAPGQGLEWMGWINPNSGGTNYAQKFQGRVTMTRDTSTSTVYMELSSLRSEDTAVYYCTTDQLRFGKTGPYYGMDVWGQGTTVTVSS VL: DIQMTQSPSSLSASVGDRVTITCRASQNIGTYLNWYQQKPGKAPKLLIYAASSLQSGVPSRFSGSGSGTDFTLTISSLQPEDFATYYCQQSYSDTLTFGGGTKVEIK
